# Assay results as given in publication PMC4132890.
# Biological target: ryanodine receptors (rat (endogenous in rat ventricular myocytes)) (UniProt B0LPN4)
# Test: fluorescence wash-in and wash-out in permeabilized myocytes
# Chain of UniProt B0LPN4 (B0LPN4 whole entry): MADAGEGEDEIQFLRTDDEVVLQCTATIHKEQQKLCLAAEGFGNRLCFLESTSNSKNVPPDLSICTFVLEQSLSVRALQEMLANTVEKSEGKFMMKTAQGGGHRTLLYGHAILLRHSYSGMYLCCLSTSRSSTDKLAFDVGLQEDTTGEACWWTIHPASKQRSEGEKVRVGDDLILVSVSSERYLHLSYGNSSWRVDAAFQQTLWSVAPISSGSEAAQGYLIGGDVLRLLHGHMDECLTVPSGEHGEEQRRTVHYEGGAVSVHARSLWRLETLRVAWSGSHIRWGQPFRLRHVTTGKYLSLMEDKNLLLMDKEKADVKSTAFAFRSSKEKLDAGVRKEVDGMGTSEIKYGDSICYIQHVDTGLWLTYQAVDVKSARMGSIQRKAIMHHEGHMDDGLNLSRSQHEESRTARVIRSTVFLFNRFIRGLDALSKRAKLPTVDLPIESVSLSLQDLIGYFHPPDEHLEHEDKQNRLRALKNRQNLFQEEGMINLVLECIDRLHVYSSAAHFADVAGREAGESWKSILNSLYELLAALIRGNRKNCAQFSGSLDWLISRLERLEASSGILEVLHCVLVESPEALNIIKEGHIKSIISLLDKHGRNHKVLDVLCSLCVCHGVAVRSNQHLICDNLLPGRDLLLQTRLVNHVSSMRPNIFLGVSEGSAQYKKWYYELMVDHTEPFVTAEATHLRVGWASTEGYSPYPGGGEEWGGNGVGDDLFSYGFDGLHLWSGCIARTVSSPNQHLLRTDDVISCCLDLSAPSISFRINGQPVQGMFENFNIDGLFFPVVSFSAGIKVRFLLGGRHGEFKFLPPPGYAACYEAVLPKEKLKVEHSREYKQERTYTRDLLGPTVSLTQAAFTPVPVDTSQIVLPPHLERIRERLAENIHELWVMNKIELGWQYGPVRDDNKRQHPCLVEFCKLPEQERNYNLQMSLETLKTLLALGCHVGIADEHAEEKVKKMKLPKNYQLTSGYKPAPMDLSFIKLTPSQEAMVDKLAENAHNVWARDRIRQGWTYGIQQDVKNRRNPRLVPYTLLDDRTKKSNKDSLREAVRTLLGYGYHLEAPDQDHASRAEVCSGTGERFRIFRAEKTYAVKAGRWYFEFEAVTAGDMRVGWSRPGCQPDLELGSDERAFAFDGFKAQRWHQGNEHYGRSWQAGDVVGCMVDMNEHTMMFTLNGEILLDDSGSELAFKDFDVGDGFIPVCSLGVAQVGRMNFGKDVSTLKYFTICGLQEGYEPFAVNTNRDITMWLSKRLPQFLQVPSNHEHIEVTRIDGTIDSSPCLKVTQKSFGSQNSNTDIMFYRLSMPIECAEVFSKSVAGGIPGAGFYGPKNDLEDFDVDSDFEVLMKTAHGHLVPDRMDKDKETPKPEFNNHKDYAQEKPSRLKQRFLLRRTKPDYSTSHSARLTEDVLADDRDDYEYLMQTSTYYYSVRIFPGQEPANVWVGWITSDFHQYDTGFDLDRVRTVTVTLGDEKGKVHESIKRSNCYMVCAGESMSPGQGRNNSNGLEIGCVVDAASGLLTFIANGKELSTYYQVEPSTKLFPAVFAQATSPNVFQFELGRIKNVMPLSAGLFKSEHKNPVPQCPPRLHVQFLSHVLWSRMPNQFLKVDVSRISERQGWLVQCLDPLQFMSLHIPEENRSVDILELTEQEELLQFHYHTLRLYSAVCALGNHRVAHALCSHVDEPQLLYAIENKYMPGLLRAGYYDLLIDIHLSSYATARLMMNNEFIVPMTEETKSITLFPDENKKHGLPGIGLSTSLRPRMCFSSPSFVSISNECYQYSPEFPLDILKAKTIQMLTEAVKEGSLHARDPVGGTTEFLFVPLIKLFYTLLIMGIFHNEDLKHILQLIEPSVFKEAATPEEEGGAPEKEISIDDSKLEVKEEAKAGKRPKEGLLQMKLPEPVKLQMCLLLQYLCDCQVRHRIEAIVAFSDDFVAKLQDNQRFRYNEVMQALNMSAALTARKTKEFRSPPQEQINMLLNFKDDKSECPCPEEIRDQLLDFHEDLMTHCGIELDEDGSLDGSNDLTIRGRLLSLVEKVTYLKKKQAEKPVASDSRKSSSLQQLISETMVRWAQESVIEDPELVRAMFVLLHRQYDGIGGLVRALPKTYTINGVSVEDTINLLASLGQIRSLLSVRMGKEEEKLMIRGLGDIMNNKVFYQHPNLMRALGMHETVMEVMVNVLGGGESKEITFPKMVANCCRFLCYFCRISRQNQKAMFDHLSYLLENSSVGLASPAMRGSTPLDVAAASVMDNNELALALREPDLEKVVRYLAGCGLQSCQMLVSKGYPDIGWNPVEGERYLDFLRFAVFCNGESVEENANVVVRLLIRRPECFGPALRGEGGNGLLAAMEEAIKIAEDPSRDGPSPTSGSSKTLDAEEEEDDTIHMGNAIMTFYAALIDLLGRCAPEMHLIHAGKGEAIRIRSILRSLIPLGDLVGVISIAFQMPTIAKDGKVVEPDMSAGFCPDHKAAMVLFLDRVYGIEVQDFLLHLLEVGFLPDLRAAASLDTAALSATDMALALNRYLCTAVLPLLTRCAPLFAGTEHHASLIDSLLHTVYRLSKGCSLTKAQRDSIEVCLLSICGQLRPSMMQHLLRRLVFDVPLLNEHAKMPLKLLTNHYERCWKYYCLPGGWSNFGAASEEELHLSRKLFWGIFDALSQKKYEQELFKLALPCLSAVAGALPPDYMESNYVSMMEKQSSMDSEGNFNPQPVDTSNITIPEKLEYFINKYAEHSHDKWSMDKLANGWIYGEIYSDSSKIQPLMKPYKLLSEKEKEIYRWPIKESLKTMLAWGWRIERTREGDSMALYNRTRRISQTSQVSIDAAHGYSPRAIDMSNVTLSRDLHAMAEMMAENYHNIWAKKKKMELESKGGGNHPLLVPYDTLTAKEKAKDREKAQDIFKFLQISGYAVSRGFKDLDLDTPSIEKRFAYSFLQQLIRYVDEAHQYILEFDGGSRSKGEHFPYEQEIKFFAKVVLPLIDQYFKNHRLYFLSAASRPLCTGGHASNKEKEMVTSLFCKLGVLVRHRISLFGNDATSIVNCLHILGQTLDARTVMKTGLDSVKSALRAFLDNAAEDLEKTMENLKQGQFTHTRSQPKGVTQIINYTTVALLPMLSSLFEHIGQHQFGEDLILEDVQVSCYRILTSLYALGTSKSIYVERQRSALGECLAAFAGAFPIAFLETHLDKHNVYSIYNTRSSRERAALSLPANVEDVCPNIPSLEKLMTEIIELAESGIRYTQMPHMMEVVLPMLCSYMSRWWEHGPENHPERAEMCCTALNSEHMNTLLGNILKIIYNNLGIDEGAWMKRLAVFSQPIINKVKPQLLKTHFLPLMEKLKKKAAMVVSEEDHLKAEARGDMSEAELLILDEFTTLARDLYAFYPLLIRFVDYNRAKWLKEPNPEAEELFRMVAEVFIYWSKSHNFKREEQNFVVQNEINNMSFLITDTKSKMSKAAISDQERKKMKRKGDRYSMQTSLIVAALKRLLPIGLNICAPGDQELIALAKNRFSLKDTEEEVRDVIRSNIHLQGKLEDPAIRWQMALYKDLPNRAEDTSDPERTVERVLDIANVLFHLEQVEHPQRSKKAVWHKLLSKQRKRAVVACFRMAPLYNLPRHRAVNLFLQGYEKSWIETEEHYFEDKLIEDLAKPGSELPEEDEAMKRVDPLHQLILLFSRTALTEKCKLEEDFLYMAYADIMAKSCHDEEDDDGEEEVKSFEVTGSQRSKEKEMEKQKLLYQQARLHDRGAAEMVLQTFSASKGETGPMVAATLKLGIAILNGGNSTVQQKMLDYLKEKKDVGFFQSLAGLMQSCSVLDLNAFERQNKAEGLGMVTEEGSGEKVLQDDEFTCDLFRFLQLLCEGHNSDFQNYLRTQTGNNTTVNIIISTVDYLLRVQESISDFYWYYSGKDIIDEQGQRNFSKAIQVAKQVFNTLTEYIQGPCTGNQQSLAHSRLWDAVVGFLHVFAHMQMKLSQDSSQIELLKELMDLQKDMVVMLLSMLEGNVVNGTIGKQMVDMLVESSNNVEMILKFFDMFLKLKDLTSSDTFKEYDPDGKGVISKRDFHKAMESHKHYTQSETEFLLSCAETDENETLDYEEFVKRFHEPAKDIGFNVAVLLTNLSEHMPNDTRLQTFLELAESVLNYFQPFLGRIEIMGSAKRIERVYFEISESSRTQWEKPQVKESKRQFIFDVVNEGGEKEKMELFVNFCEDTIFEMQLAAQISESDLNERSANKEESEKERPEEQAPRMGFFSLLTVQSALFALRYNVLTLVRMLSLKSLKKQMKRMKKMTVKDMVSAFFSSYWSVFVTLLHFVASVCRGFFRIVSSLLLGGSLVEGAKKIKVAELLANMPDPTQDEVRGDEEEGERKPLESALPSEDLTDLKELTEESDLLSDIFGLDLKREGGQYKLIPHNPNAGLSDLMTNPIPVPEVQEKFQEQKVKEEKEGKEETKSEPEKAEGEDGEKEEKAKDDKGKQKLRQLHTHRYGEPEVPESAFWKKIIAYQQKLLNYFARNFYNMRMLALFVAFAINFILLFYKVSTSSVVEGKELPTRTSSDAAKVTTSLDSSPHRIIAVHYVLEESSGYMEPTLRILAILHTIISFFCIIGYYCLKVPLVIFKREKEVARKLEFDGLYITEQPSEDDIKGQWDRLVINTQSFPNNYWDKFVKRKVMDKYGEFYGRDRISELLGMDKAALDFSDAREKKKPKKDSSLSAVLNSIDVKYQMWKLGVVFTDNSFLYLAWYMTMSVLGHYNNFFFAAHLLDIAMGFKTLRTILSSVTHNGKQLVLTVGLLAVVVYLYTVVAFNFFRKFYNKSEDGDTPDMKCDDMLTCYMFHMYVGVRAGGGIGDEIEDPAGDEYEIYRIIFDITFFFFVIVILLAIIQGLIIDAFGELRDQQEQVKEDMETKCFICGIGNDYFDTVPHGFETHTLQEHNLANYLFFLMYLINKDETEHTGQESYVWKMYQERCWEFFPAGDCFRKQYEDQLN
row,Substance,Kd [nM]
1,GCaMP2.2-FKBP12.6,15.5
2,GCaMP2.2Low-FKBP12.6,43.8
